# Source: patent CN114716553A (BEIJING KENUO XINCHENG TECH CO LTD, dated 2022)
# Residue numbers refer to the chain shown, from its start.
# B1: B2 (VHH)
# VHH: QVQLQESGGGPVQAGGSLRLSCAASEYSYRRHCMAWFRQAPGKEREGVATIYTGGGITRYADSVKGRFTISQDNAKNTVYLQMNSLKPEDTAMYYCAADIASRACVTDPFPLERARFSAWGQGTQVTVSS
# notes: also called 噬菌体展示的纳米抗体B2
# B2: F1 (VHH)
# VHH: B1 VHH with P11L
# notes: also called 噬菌体展示的纳米抗体F1
# B3: hzD2-1 (Fc fusion)
# chain: EVQLVESGGGLVQPGGSLRLSCAASGFTVSSDYMGWFRQAPGKEREGVACINTNGGETYHANSVSGRFTISRDNSKNTLYLQMNSLRAEDTAVYYCARGRTNPDSYGGSRCLLAPEYTYWGQGTLVTVSS
# notes: Humanised VHH of D2 fused to human Fc, expressed in HEK293; also called D2人源化分子hzD2-1; hzD2-1人源化抗体; not shown: human Fc (hFc) from the expression vector
# B4: hzD2-2 (Fc fusion)
# chain: B3 chain with F27Y, V29A
# notes: Humanised VHH of D2 fused to human Fc, expressed in HEK293; also called D2人源化分子hzD2-2; hzD2-2人源化抗体; not shown: human Fc (hFc) from the expression vector
# B5: C3 (VHH)
# VHH: QVQLQESGGGLVQAGGSLRLSCVASEYIYTRCNMAWYRQAPGKERELVSAFDIGDTLYYADSVKGRFTISQDNAKNTVYLQMNSLKPEDTAMYYCNTVGVKPGGGSWCFNPDYWGQGTQVTVSS
# notes: also called 噬菌体展示的纳米抗体C3
# B6: 对照抗体193 (antibody, IgG1, V domains shown)
# VH: EVQLVESGGGLVQPGGSLRLSCAASGFSLSSSYWISWVRQAPGKGLEWIGSIDSGSVGITYYATWVKGRFTISRDNSKNTLYLQMNSLRAEDTAVYYCARHGDNWALDLWGQGTLVTVSS
# VL: DIQMTQSPSTLSASVGDRVTITCRASQSINSWLAWYQQKPGKAPKLLIYKASTLASGVPSRFSGSGSGTEFTLTISSLQPDDAATYYCQHGYIRGDLDNVFGGGTKVEIK
# notes: Variable regions cloned into vectors with human kappa / IgG1 constant regions and expressed in HEK293; also called 同靶点对照抗体193
# Key:
# [1] = target: T1, 人LILRB4的重组蛋白 (phage library screening antigen) (human, UniProt Q8NHJ6 22-259, limits assumed); assay: solid phase screening of phage library
# T1 construct: May be the same protein as the immunogen or as m14
# [2] = target: T2, 人LILRB4 (on LILRB4-positive cells) (human, UniProt Q8NHJ6 22-448); assay: flow cytometry on RPMI-8226 cells
# T2 construct: whole, on cells; also called 人LILRB4阳性细胞THP-1细胞; 人LILRB4阳性细胞RPMI-8226细胞
# [3] = target: T3, 人LILRB4重组蛋白(购于义翘，Cat.16742-H08H) (human, UniProt Q8NHJ6 22-259); assay: BLI (Octet QKe), antibody captured on AHC probe, antigen 100 nM, 1:1 Langmuir fit
# T3 construct: Bought protein; also called human LILRB4 recombinant protein
# [4] = target: T2, 人LILRB4 (on LILRB4-positive cells); assay: cell-based or functional assay
# [5] = target: T2, 人LILRB4 (on LILRB4-positive cells); assay: flow cytometry on THP-1 cells
binder,measurement,setting,value
B1,binding result,[1],binds
B2,binding result,[1],binds
B3,EC50,[2],0.221 nM
same,Kd,[3],1.03 nM
same,koff,[3],0.000172 s⁻¹
same,kon,[3],167000 M⁻¹ s⁻¹
B4,EC50,[2],0.215 nM
same,Kd,[3],0.948 nM
same,koff,[3],0.000175 s⁻¹
same,kon,[3],185000 M⁻¹ s⁻¹
B5,binding result,[1],binds
B6,"EC50 of T cell activation (LILRB4 Effector Reporter cells with APOE/TCR Activator/CHO cells, luciferase)",[4],0.094 nM
same,EC50,[2],0.227 nM
same,EC50,[5],1.43 nM
same,Kd,[3],0.721 nM
same,koff,[3],0.00022 s⁻¹
same,kon,[3],305000 M⁻¹ s⁻¹
